Results from the nanobody polyreactivity screen of Harvey et al. (2022).

Assay: yeast display, Sf9 membrane polyspecificity reagent, FACS + sequencing; frameworks hold sequencing errors
Outline: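 A synthetic nanobody library was expressed on Saccharomyces cerevisiae BJ5465 by galactose induction for 36–48 hours. The library was stained for 1 hour at 4 °C with 10% biotinylated, detergent-solubilized Sf9 membrane reagent and enriched with streptavidin microbeads before FACS. Low and high (top ~1%) gates were set on anti-HA fluorescence for expression and streptavidin fluorescence for reagent binding, and each polyreactivity label reflects the gate of origin.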

QVQLQECGGGLVQAGGSLRLSCAARGNIFDADIMGWYRQAPGKESELLASVTDGGSTNYADSVKGRFTISRDNAKNTVYLQMNSLKPEDSAVYYCAAIVYPDILTYFDYDYDYFYWGQGTQVTVGS
polyreactivity (PSR sort gate): low polyreactivity

QVQLQEGGGGLVQAGGSLRLSCAASGYISYGDDMGWYRQAPGEERELVASIGLDATTNYADSVKGRFTISRDNAKITVYLQMNSLKPEDTAVYYCAADVGSGVLCGYWGQGTQMTVSS
polyreactivity (PSR sort gate): high polyreactivity

QVQLQEGGGGQVQAGGSLRLSCAASGYITNGDVMGWSRQAPGEERELVASSGLDATTNYADSVKGRFTISRDNAKMTVYLQMNSLKPEDTAVYYCAADVGSGVLCGYWGQGTQMTVSS
polyreactivity (PSR sort gate): high polyreactivity

QVQLQEIGGGLVQAGGSLRQSYAASGYIFPSLAMGWYRQAQGKEREFVAAIGRGSTNNYADSVKGRFTISRDNAKNTAYQQMNSLKPEDTAVYYCAVVQRSKRTYPWYDYWGQGTQVTVSS
polyreactivity (PSR sort gate): low polyreactivity

QVQLQERGDGLGQAVGSLRLSCAASGYISGYYYLGWYRQAPGKEGVVVAGIDAFGSRTNFADCVKGRFTISRDNAKNPVDLQMNSLKPEETAVYYCAARPDGDRLFSYWGQGPQVTVSS
polyreactivity (PSR sort gate): low polyreactivity

QVQLQERGGGLVQAGGSLRLSCAASGIIYADGFMGLYRQAPGKEREFVATITGGGTSNYADSVKGRFTISRDNAKNTVYLQMNSLKPEDTAVYYCAVYFAWTIGFTYLGQGTQVTVSS
polyreactivity (PSR sort gate): high polyreactivity

QVQLQERGVGLVQAGGTISLGYDMVWYRQAPGKEREFVAGIDTCAITYYADSVKGRFTNSRDNAKNTVYLQMNILNPEDTAVYYCAANQTHTYAHSYWGQGTQVTVSS
polyreactivity (PSR sort gate): high polyreactivity

QVQLQESAAGLVQAGGSLRMSCAASGNIFDADIMGWYRQEPGKERELVASITDGRRTNYADSVKGRYTISRDSEKNTVYLQMNSLKPEDTAVYYCAAIAYPVVPTYFDYDSDYFHWGQGTQVTVSS
polyreactivity (PSR sort gate): high polyreactivity

QVQLQESAGGLVQAGGSLRLRCSASGYISCDASMGWNRQAPGKERELAASITKGSSTNYADSVKGRFTIRDNAKNTVYLQMNSLKPEDTAVCYCAVTYPYWGDYTYWGQGTQVTVSR
polyreactivity (PSR sort gate): low polyreactivity

QVQLQESAGGLVQAGGSLRLRCSASGYISCDASMGWYRQAPGKERELAASITKGSSTNYADSVKGRFTIRDNAKNTVYLQMNSLKPEDSAVCYCAVTYPYWGDYTYWGQGTQVTVSS
polyreactivity (PSR sort gate): low polyreactivity

QVQLQESAGGLVQAGGSLRLRCSASGYISCDASMGWYRQAPRKERELAASITKGSSTNYADSVKGRFTIRDNAKNSVYLQMNSLKPEDTAVFYCAVTYPYWGDYTYWGQGTQVTVSS
polyreactivity (PSR sort gate): low polyreactivity

QVQLQESAGGLVQAGGSLRLRFSASAYNSCDASMGWYSQAPGKERELSASISKGSSTNYADSVKGRFTIRDNAKNSVYLQMNSLKPEVTAVCYCAVTYPYWGDYTYWGQGTQVSVSS
polyreactivity (PSR sort gate): low polyreactivity

QVQLQESAGGMVQAGGSLRLRCSASGYISCDASMGWYRQAPGKERELAASITKGSRTNYADSVKGRFTIRDNAKNTVYLQMNSLKPEVTAVCYCAVTYPYWGDYTYWGQGTQVTVSS
polyreactivity (PSR sort gate): low polyreactivity

QVQLQESCGGLVQAGGSLRLSCAASGTIFRFRYMAWHRQAPGKERELVAGINGGTTTYYADSVIGLFTISRDNAKNTVYLQMNSLKPDDTAVYNCAAGASRLTYYDYWGQGTQVTVIS
polyreactivity (PSR sort gate): low polyreactivity

QVQLQESGDGLVQAGGSLRLSSAASGTIFSDYGMGGYRQAPGKERELLAGISDGCNTNYTDSVKGRFTISRDNAHRVSADEQPETGGYRGVLLRGSERWLLFYVYWGQGTQVTVSS
polyreactivity (PSR sort gate): high polyreactivity

QVQLQESGDGLVQAVGSLRLSCAASGYISGYYYMGWYRQAPGKERELVAGIDAFGSSTNYADCVKGRFTIRRDNAKNTVYLLMNSPKPEDTAVFYCAAEFDDWDYHWYWGQGTQVTVSS
polyreactivity (PSR sort gate): low polyreactivity

QVQLQESGDGLVQAVGSLRLSCAASGYISGYYYMGWYRQAPGKERELVAGIDAFGSSTNYADCVKGRLTISRDNAKNTVYLQMNSPKPEDTAVYYCAAEYDDWDYHWYWGQGTQVTVSS
polyreactivity (PSR sort gate): low polyreactivity

QVQLQESGGALVQAGGSLRLSCAASGYISAGRQMGWYRQAPGKELEFVATINGGATTNYADSVKGRFTISRDNAKNSVYLQMNSLKPEDTAVYYCAAVIWYVQDYTYWGQGAQVTVSS
polyreactivity (PSR sort gate): high polyreactivity

QVQLQESGGCLVQADGSLRLSCAASGSIFGYYYMGWYRQAPGKDRELVATINICGITNYADSVKGRFTISRDNAKNTVYLQMNSLKPDDTAVYYCAADEYAQRDLGYWGQGTQVTVSS
polyreactivity (PSR sort gate): low polyreactivity

QVQLQESGGDLEQAGGSLLLSCTASGTISEVRVMGWYRQAPGKERELVATISYVTITYYADSVKGRFTISRDSEKHRVSADDEPQTGRYRGVLLSYYWGLGTQVTVSS
polyreactivity (PSR sort gate): low polyreactivity

QVQLQESGGDLVQAGGSLRLSCAASGTIYGLTSMGSYRQRPGKEREFVAAITDGGNTNYADSVKGRFTISRDNAKNTVYLQMISLKPDETAVYYWAVLFSDDAYYAYWGQGTQVTVSS
polyreactivity (PSR sort gate): low polyreactivity

QVQLQESGGGLAQAGGSLRLSCAASGNIFDADIMGWYRKAPGKERELVGSITDGGSTNYVDSVKGRFTISRDNAKNTVHLQMNSLKPEDTAVYYCAAIAYPEIPTYFDYDSDCFNWGHGTQVTVSS
polyreactivity (PSR sort gate): high polyreactivity

QVQLQESGGGLCRRAAASSGAASGTISYLNYMGWYRQAPGKEREFVAGINNGTTTNYADSVKGRFTISRDNAKNTVYLQMNSLKLEDTAVYYCAVDPYYTFYFWYWGQGTQLTVSS
polyreactivity (PSR sort gate): high polyreactivity

QVQLQESGGGLLQAGGCLSCTASGTILVQGDMGWYRHAPGKERELVATINDGASTYYADSVKGRFTISRDKAKNTVYLQKNSLKPDDTAVYYCAVFTDITTYFGYWGQGTQVTVSS
polyreactivity (PSR sort gate): low polyreactivity

QVQLQESGGGLLQAGGSLRLSYAASGYMFPYLAMGWYRQAPGKEREFVAAIGRGSTNNYADSVKGRFTISRDNAKNTAFQQMNSLKPEDTAVYYCAAAASPLTRHLYWGQGSQVTVSS
polyreactivity (PSR sort gate): low polyreactivity

QVQLQESGGGLMQAGGNLRLSCAASGYISTHYDMDWYRPAPGKERELVARIDDGAITNYADSVKGRFTISRDNAKNTVYLQMNSLKPEDTAVYYCAVYSGDDYYHDYWGQGTQVTVSS
polyreactivity (PSR sort gate): low polyreactivity

QVQLQESGGGLMQAGGSLRLSCAASGNIFLGHTKGWYRQAPGNEREFVAGIARGGNPYNADSVKGRFTISRNNAKNTVYLQKNSLKAEDTAVHYCGVQRSHASDYNYWGQGTQVTVSS
polyreactivity (PSR sort gate): low polyreactivity

QVQLQESGGGLMQAGGSQRLSCAASGSISYYSDMGWYRQAPGKEREFVAGIGYGTTTNYADSVKGRFTTSRDNAKNTVYLQMISMKTEDTAVYYCAAYQGNGYEFYYWGQGTQVTVRS
polyreactivity (PSR sort gate): low polyreactivity

QVQLQESGGGLVEAGGSLRLSCAASGTISYAPHMGWYRQAPGKERELVAGITIGGTTNYADSVKGRFTISRDNAKNTVYLQMISLSPGDTALYYCAAHYDQYTPFYYWGQGSQVTVSS
polyreactivity (PSR sort gate): low polyreactivity

QVQLQESGGGLVHAGGSLRLSCPASGTISFINMMGWYRQAPGRERELVASINFGANTNYADSVKGRFTISRDNAKNTVYLQLKSLKPEDTAVYYCAVYCAWTIGFTYWGQGTQVTVRS
polyreactivity (PSR sort gate): high polyreactivity

QVQLQESGGGLVLAGGSLRLNCAESGYISWSFTMGWYRKPTGKEREFVAGITYGGITYYADSVKGRFTISRDNAKNTVYLEMNRLKPEDTAVYYCAAPQSYPYVYVYWGQGTEVTVSS
polyreactivity (PSR sort gate): high polyreactivity

QVQLQESGGGLVQACGSLRLSCAASGSISNGDYMGWYRQAPGKEREFVAGINTGSITYYADSVKGRFTISRDNAKNTAYLQMNSLKPEDTAVYYCAATFDAQFREPKGLYYWGQGTQVTVSS
polyreactivity (PSR sort gate): low polyreactivity
